Consider 15 molecules from patent publication US20100260668A1 (published 2010).

To fix the notation:
B1: AB008 (antibody, human IgG1, kappa, V domains shown)
VH: QVQLVQSGAEVKKPGSSVKVSCKASGYTFTSYWLHWVRQAPGQGLEWIGYINPRNDYTEYNQNFKDKATITADESTNTAYMELSSLRSEDTAFYFCARRDITTFYWGQGTTVTVSS
VL: DIQLTQSPSSLSASVGDRVTMSCKSSQSVLYSANHKNYLAWYQQKPGKAPKLLIYWASTRESGVPSRFSGSGSGTDFTFTISSLQPEDIATYYCHQYLSSWTFGGGTKLEIKR
B2: DVD474 (bispecific antibody, human IgG1, kappa)
heavy: not shown
light: DIQMTQSPSSLSASVGDRVTITCRASQVIRRSLAWYQQKPGKAPKLLIYAASNLASGVPSRFSGSGSGTDFTLTISSLQPEDFATYYCQQSNTSPLTFGQGTKVEIKRTVAAPSVFIFPPDIQMTQSPSSLSASVGDRVTITCRASQDVSTAVAWYQQKPGKAPKLLIYSASFLYSGVPSRFSGSGSGTDFTLTISSLQPEDFATTYYCQQSYTGTVTFGQGTKVEIKRTVAAPSVFIFPPSDEQLKSGTASVVCLLNNFYPREAKVQWKVDNALQSGNSQESVTEQDSKDSTYSLSSTLTLSKADYEKHKVYACEVTHQGLSSPVTKSFNRGEC
notes: DVD-Ig, HC long / LC long; DLL4 domain C-terminal; also called VEGF / DLL4 DVD-Ig; DVD474H
B3: DVD486 (bispecific antibody, human IgG1, kappa)
heavy: not shown
light: B2 light
notes: DVD-Ig, HC short / LC long; DLL4 domain C-terminal; also called VEGF / DLL4 DVD-Ig; DVD486H
B4: DVD476 (bispecific antibody, human IgG1, kappa)
heavy: not shown
light: DIQMTQSPSSLSASVGDRVTITCSASQDISNYLNWYQQKPGKAPKVLIYFTSSLHSGVPSRFSGSGSGTDFTLTISSLQPEDFATYYCQQYSTVPWTFGQGTKVEIKRTVAAPDIQMTQSPSSLSASVGDRVTITCRASQDVSTAVAWYQQKPGKAPKLLIYSASFLYSGVPSRFSGSGSGTDFTLTISSLQPEDFATTYYCQQSYTGTVTFGQGTKVEIKRTVAAPSVFIFPPSDEQLKSGTASVVCLLNNFYPREAKVQWKVDNALQSGNSQESVTEQDSKDSTYSLSSTLTLSKADYEKHKVYACEVTHQGLSSPVTKSFNRGEC
notes: DVD-Ig, HC long / LC short; DLL4 domain C-terminal; also called VEGF / DLL4 DVD-Ig; DVD476H
B5: DVD485 (bispecific antibody, human IgG1, kappa)
heavy: not shown
light: DIQMTQSPSSLSASVGDRVTITCRASQDVSTAVAWYQQKPGKAPKLLIYSASFLYSGVPSRFSGSGSGTDFTLTISSLQPEDFATTYYCQQSYTGTVTFGQGTKVEIKRTVAAPSVFIFPPDIQMTQSPSSLSASVGDRVTITCRASQVIRRSLAWYQQKPGKAPKLLIYAASNLASGVPSRFSGSGSGTDFTLTISSLQPEDFATYYCQQSNTSPLTFGQGTKVEIKRTVAAPSVFIFPPSDEQLKSGTASVVCLLNNFYPREAKVQWKVDNALQSGNSQESVTEQDSKDSTYSLSSTLTLSKADYEKHKVYACEVTHQGLSSPVTKSFNRGEC
notes: DVD-Ig, HC short / LC long; DLL4 domain N-terminal; also called DLL4 / VEGF DVD-Ig; DVD485H
B6: DVD470 (bispecific antibody, human IgG1, kappa)
heavy: not shown
light: DIQMTQSPSSLSASVGDRVTITCSASQDISNYLNWYQQKPGKAPKVLIYFTSSLHSGVPSRFSGSGSGTDFTLTISSLQPEDFATYYCQQYSTVPWTFGQGTKVEIKRTVAAPSVFIFPPDIQMTQSPSSLSASVGDRVTITCRASQDVSTAVAWYQQKPGKAPKLLIYSASFLYSGVPSRFSGSGSGTDFTLTISSLQPEDFATTYYCQQSYTGTVTFGQGTKVEIKRTVAAPSVFIFPPSDEQLKSGTASVVCLLNNFYPREAKVQWKVDNALQSGNSQESVTEQDSKDSTYSLSSTLTLSKADYEKHKVYACEVTHQGLSSPVTKSFNRGEC
notes: DVD-Ig, HC long / LC long; DLL4 domain C-terminal; also called VEGF / DLL4 DVD-Ig; DVD470H
B7: DVD482 (bispecific antibody, human IgG1, kappa)
heavy: not shown
light: B6 light
notes: DVD-Ig, HC short / LC long; DLL4 domain C-terminal; also called VEGF / DLL4 DVD-Ig; DVD482H
B8: DVD581 (bispecific antibody, human IgG1, kappa)
heavy: not shown
light: DIVLTQSPDSLAVSLGERVTMNCKSSQSLLNSGMRKSFLAWYQQKPGQSPKLLIYWASTRESGVPDRFTGSGSGTDFTLTISSVQAEDVAVYYCKQSYHLFTFGSGTKLEIKRTVAAPSVFIFPPDIQMTQSPSSLSASVGDRVTITCRASQDVSTAVAWYQQKPGKAPKLLIYSASFLYSGVPSRFSGSGSGTDFTLTISSLQPEDFATYYCQQSYTTPPTFGQGTKVEIKRTVAAPSVFIFPPSDEQLKSGTASVVCLLNNFYPREAKVQWKVDNALQSGNSQESVTEQDSKDSTYSLSSTLTLSKADYEKHKVYACEVTHQGLSSPVTKSFNRGEC
notes: also called DVD581H; DVD581L
B9: DVD597 (bispecific antibody, human IgG1, kappa)
heavy: not shown
light: B8 light
notes: also called DVD597VH; DVD597VL
B10: DVD573 (bispecific antibody, human IgG1, kappa)
heavy: not shown
light: DIVLTQSPDSLAVSLGERVTMNCKSSQSLLNSGMRKSFLAWYQQKPGQSPKLLIYWASTRESGVPDRFTGSGSGTDFTLTISSVQAEDVAVYYCKQSYHLFTFGSGTKLEIKRTVAAPDIQMTQSPSSLSASVGDRVTITCRASQDVSTAVAWYQQKPGKAPKLLIYSASFLYSGVPSRFSGSGSGTDFTLTISSLQPEDFATYYCQQSYTTPPTFGQGTKVEIKRTVAAPSVFIFPPSDEQLKSGTASVVCLLNNFYPREAKVQWKVDNALQSGNSQESVTEQDSKDSTYSLSSTLTLSKADYEKHKVYACEVTHQGLSSPVTKSFNRGEC
notes: also called DVD573H; DVD573L
B11: DVD589 (bispecific antibody, human IgG1, kappa)
heavy: not shown
light: B10 light
notes: also called DVD589VH; DVD589VL
B12: DVD575 (bispecific antibody, human IgG1, kappa)
heavy: not shown
light: DIVLTQSPDSLAVSLGERVTMNCKSSQSLLNSGMRKSFLAWYQQKPGQSPKLLIYWASTRESGVPDRFTGSGSGTDFTLTISSVQAEDVAVYYCKQSYHLFTFGSGTKLEIKRTVAAPDIQMTQSPSSLSASVGDRVTITCRASQVIRRSLAWYQQKPGKAPKLLIYAASNLASGVPSRFSGSGSGTDFTLTISSLQPEDFATYYCQQSNTSPLTFGQGTKVEIKRTVAAPSVFIFPPSDEQLKSGTASVVCLLNNFYPREAKVQWKVDNALQSGNSQESVTEQDSKDSTYSLSSTLTLSKADYEKHKVYACEVTHQGLSSPVTKSFNRGEC
notes: DVD-Ig, N-term PlGF (AB047) / C-term VEGF (AB071); also called DVD575H; DVD575L
B13: DVD591 (bispecific antibody, human IgG1, kappa)
heavy: not shown
light: B12 light
notes: DVD-Ig, N-term PlGF (AB047) / C-term VEGF (AB071); also called DVD591VH; DVD591VL
B14: DVD583 (bispecific antibody, human IgG1, kappa)
heavy: not shown
light: DIVLTQSPDSLAVSLGERVTMNCKSSQSLLNSGMRKSFLAWYQQKPGQSPKLLIYWASTRESGVPDRFTGSGSGTDFTLTISSVQAEDVAVYYCKQSYHLFTFGSGTKLEIKRTVAAPSVFIFPPDIQMTQSPSSLSASVGDRVTITCRASQVIRRSLAWYQQKPGKAPKLLIYAASNLASGVPSRFSGSGSGTDFTLTISSLQPEDFATYYCQQSNTSPLTFGQGTKVEIKRTVAAPSVFIFPPSDEQLKSGTASVVCLLNNFYPREAKVQWKVDNALQSGNSQESVTEQDSKDSTYSLSSTLTLSKADYEKHKVYACEVTHQGLSSPVTKSFNRGEC
notes: DVD-Ig, N-term PlGF (AB047) / C-term VEGF (AB071); also called DVD583H; DVD583L
B15: DVD599 (bispecific antibody, human IgG1, kappa)
heavy: not shown
light: B14 light
notes: DVD-Ig, N-term PlGF (AB047) / C-term VEGF (AB071); also called DVD599VH; DVD599VL

The target of one test is recombinant human HGF (human, UniProt P14210 32-728). Briefly: cell-based or functional assay.
Chain of recombinant human HGF (P14210 32-728 limits assumed): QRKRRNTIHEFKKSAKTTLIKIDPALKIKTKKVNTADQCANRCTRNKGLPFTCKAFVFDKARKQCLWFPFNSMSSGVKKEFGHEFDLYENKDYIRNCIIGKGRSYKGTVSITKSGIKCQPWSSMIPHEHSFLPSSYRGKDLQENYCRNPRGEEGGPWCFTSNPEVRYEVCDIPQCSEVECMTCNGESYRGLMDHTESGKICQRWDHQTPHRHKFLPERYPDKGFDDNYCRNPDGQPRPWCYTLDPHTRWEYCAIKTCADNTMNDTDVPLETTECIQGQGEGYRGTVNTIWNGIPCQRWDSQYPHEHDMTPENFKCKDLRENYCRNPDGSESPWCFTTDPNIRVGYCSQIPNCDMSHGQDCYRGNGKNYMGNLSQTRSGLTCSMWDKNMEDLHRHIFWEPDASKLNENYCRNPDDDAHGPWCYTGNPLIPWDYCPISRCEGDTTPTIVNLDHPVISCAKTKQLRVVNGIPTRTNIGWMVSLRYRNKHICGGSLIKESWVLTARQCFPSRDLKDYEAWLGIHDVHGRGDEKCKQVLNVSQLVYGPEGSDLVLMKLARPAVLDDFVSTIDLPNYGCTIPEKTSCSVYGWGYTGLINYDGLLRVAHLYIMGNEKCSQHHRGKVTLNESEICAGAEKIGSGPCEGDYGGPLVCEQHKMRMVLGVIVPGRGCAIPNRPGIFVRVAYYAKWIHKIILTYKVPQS
Turning to B1, the “Inhibition Of Akt Phosphorylation (% Inhibition At 6.7 nM Ab/DVD)” value is -13% and the “Inhibition Of Akt Phosphorylation (% Inhibition At 67 nM Ab/DVD)” value was determined as 8%.

For the next test, the target named is biotinylated VEGF (UniProt P15692-4 27-191, limits assumed, biotinylated). Kind of test: VEGF capture ELISA, DVD-Ig captured by anti-human Fc, biotinylated VEGF.
Chain of biotinylated VEGF (P15692 other isoform, or with tags, fused parts or gaps limits assumed): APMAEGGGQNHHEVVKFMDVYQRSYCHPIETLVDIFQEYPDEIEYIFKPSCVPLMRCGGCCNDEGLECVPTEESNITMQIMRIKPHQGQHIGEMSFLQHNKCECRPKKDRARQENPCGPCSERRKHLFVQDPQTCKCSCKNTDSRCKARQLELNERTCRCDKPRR
B2: the midpoint of the response, the EC50, lay at 1.65 nM. Same read-out and setting: next, B3: 0.53 nM. On the same count and under the same terms, next, B4: 0.22 nM; B5: 2.5 nM; B6: 0.27 nM. The same measure, in the same setting: next, B7: 0.22 nM.

The next test concerns the target T1, placental growth factor (PLGF) (UniProt P49763-2 21-149, limits assumed).
T1 construct: also called P1GF
T1 sequence (looked up): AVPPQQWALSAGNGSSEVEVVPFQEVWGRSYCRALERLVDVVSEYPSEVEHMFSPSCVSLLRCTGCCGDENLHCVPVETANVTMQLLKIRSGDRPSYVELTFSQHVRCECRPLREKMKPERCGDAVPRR
Kind of test: ligand-receptor binding competition assay, PlGF binding to VEGFR1; N-terminal VD.
Take B8: the IC50 (in general, the concentration at which inhibition is half-maximal) turned out to be 3.5 nM. The same measure, in the same setting: the figure for B9 is 2.94 nM. On the same count and under the same terms, next, B10: 2.59 nM; B11: 2.87 nM; B12: 2.9 nM.

B13 yielded an IC50 of 3.23 nM. The molecule B14 showed an IC50 of 3.25 nM. Same read-out and setting: the figure for B15 is 3.19 nM.

Another test has as its target T2, biotin-labeled human DLL4 extracellular domain (human, UniProt Q9NR61 27-529, biotin-labeled).
T2 construct: extracellular domain
Kind of test: DLL4 capture ELISA, DVD-Ig captured by anti-human Fc, biotin-labeled human DLL4 ECD. Background: In an ELISA, binding on a coated surface is turned into a signal by an enzyme label.
Take B2: a half-maximal response (EC50) required 0.14 nM.

As to B3, the EC50 (as a rule, the concentration that produces a half-maximal response) is 0.16 nM. On the same count and under the same terms, the figure for B4 is 0.21 nM; for B5 it is 5.45 nM. For B6, a half-maximal effect (EC50) was put at 0.16 nM. With B7, the midpoint of the response, the EC50, lay at 0.17 nM.
